# ± gives the standard deviation.
# Assay: protein stability index of a GFP-peptide fusion (GPS, HEK-293T) (PSI 1-6); higher = more stable
# [1] = treatment: DMSO, c terminus: a fixed tail appended
# [2] = treatment: MLN4924 1 uM, 8 h, c terminus: a fixed tail appended
# [3] = treatment: DMSO, c terminus: native
# [4] = treatment: MLN4924 1 uM, 8 h, c terminus: native
# 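Note: 24-mer peptide tiles fused after GFP, lentivirally expressed, FACS-sorted into six equal bins by GFP/DsRed ratio, decoded by Illumina sequencing, PSI is the read-weighted mean bin number.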
Sequence,protein stability index [1],protein stability index [2],protein stability index [3],protein stability index [4]
VLFAVGGWCSGDAISSVERYDPQT [KLHL20],2.12 ± 0.21,2.29 ± 0.15,,
CLIRSLLRREPSERLTAPEILLHP [TRIB1],2.48 ± 0.21,2.2 ± 0.21,,
ELHPESGEEAVTLVEDMQRELGRL [ZNF263],4.88 ± 0.41,5.13 ± 0.26,,
PLKLHYQLRNVRERLAKNLVEKGV [GOLPH3],2.4 ± 0.15,2.7 ± 0.3,,
EPNTFSPANVDASVMFRKWRDSKG [UBE2R2],4.16 ± 0.46,4.4 ± 0.3,,
NLGDALDSSNSMQTIQKTTTRRIV [KRT18],4.38 ± 0.19,4.51 ± 0.28,,
GYKEFFMKCQSYCEPPSYRPMHHE [CDC25A],2.49 ± 0.15,2.42 ± 0.34,,
GKVKLQQNPGKFDELDMSPGDPKW [TBC1D10A],4.51 ± 0.32,4.83 ± 0.23,,
VWTNDQVVHWVQSIGLRDYAGNLH [PPFIA4],2.16 ± 0.53,2.11 ± 0.29,,
EALAKWAEGRTGFPWIDAIMTQLR [CRY1],3 ± 0.085,2.73 ± 0.21,,
TSFPGRGSIPEFFHIMKRKFTNKE [AASDHPPT],3.179 ± 0.024,3.21 ± 0.72,,
KLDLWSFLDIPRSRLVKYPLLLKE [NET1],2.21 ± 0.52,1.94 ± 0.47,,
YQYFVCPVEYRSDVNSFVTECEPS [CDS1],2.35 ± 0.26,2.36 ± 0.37,,
MESRKDITNQEELWKMKPRRNLEE [STEAP1],4.91 ± 0.37,4.92 ± 0.34,,
EIENVKKQASNLETAIADAEQRGD [KRT71],5.29 ± 0.49,5.42 ± 0.3,,
NEDGPSSENLEEETENIIAANHWV [TRIP13],5.08 ± 0.31,5.42 ± 0.23,,
YNIRTDSWTTVTSMTTPRCYVGAT [KLHL12],2.44 ± 0.23,2.67 ± 0.33,,
TALGGQCVDRQEVAEITKQLPPVV [TCAP],4.07 ± 0.25,4.27 ± 0.13,,
PAICALRHLTSRHQEAEMAQNAVR [CTNNB1],3.2 ± 0.5,3.67 ± 0.32,,
LQTDHYAALLGSNSESWGWDIGRG [SPSB2],3 ± 0.032,3.02 ± 0.13,,
DAELATRAIPELTKLLNDEDQVVV [CTNNB1],4.79 ± 0.22,4.8 ± 0.11,,
RPDTGDDAAGHGFCYCAGSHKRKR [GMCL1],3.81 ± 0.74,4.47 ± 0.55,,
LPLPEQIHKASATIIEPAGESDNP [INTS4],5.5 ± 0.26,5.49 ± 0.19,,

Sequence,protein stability index [1],protein stability index [2],protein stability index [3],protein stability index [4]
AWLTEEEPEPAEVTSTSQSPHSPD [DDIT3],5.59 ± 0.23,5.63 ± 0.21,,
QGHPPSLFPPKAKSNQPKSLEDLI [ATE1],4.25 ± 0.081,4.19 ± 0.16,,
ELTATFTKFDRDGNRILDEKEQEK [PKD2L1],5.38 ± 0.11,5.17 ± 0.18,,
EVEIVGVQEHARCVHPRGGVIQSV [C18orf25],3.45 ± 0.35,3.6 ± 0.31,,
AGVGLSGGAAGAGWCIFVYNLSPE [ELAVL3],3.13 ± 0.71,2.71 ± 0.26,,
LMRSQSPKAQPQTWKSGKQTMLSH [TRIM29],3.34 ± 0.33,3.6 ± 0.28,,
QTLQAMDSEDFPQAAKQIKDGVTM [FSD1],4.97 ± 0.26,5.04 ± 0.083,,
ESRKSKRRNSEFEIFVDCDINREQ [TPH1],4.85 ± 0.31,4.92 ± 0.59,,
QIHLDVDNDRTTPSDLDSTGNSLN [DLC1],5.19 ± 0.25,5.28 ± 0.18,,
KHYRLQFYMFAWTHVTLLITVTQS [CDS1],2.93 ± 0.18,3.16 ± 0.16,,
KGTSPSSKYVKLNVGGALYYTTMQ [KCTD10],2.28 ± 0.091,2.2 ± 0.14,,
CTNSPAIVRFSGQSRGVPAVSESY [FBXO34],3.21 ± 0.46,3.14 ± 0.45,,
SSRPENIPPKEFHFRHPKRSVSLS [BNIP3L],4.29 ± 0.35,4.24 ± 0.051,,
CLLICAEMYQVSRLQHICELFIIT [RHOBTB3],3.06 ± 0.38,3 ± 0.27,,
KTRQKSEKQMEEKRRANQKSSAQG [PPEF2],5.25 ± 0.27,5.3 ± 0.2,,
MHPKETTRQLSLAVKDGLIVETLT [ZMYND11],3.27 ± 0.28,3.36 ± 0.24,,
RYILPVYGICREPVGLVMEYMETG [RIPK4],2.12 ± 0.62,2.69 ± 0.55,,
EALAVLEPYARLPPHKHVARPTEV [TRIB3],2.72 ± 0.36,2.77 ± 0.2,,
KKRTEQEETIASLQMEVCRLKKEE [CEP70],5.22 ± 0.2,5.19 ± 0.38,,
DMVQKSVSKTLPSTWSDPSVNISL [CLINT1],3.04 ± 0.19,3.2 ± 0.19,,
GRREGCDICAGKAGCPIVEEPLG [RPS21],,,4.03 ± 0.13,4.33 ± 0.3
EADSQEQGHPQTGCECEDGPDGQE [GAGE1],5.57 ± 0.28,5.57 ± 0.15,,
VVAVDRDSGQNAWLSYRLLKASEP [PCDHGA10],2.56 ± 0.17,2.6 ± 0.31,,

Sequence,protein stability index [1],protein stability index [2],protein stability index [3],protein stability index [4]
ESDSCVSFEAPLTPLIQQRARDSP [PSD2],5.02 ± 0.16,4.92 ± 0.24,,
SSQLAQMQCLISNVEAQLSEIRCD [KRT36],3 ± 0.075,3.1 ± 0.31,,
SPTSGKFRRGSGSACSLLCCCGRD [MCOLN1],3.27 ± 0.15,3.56 ± 0.41,,
HLYLLRGLPGSGKTTLARQLQHDF [N4BP2L1],2.35 ± 0.47,2.27 ± 0.29,,
NAVRQNGQLVRNDSLWHRSDSAPR [MFF],4.01 ± 0.25,4.07 ± 0.21,,
CLAGCEGAHEQVDFKDFYPAIADL [P3H4],3.59 ± 0.48,3.68 ± 0.26,,
APPGSLVTKVTAVDADAGHNAWLS [PCDHGC5],3.848 ± 0.025,4 ± 0.19,,
KSQTACLPFVLAAAVSRKKKRRMG [EHMT1],3.38 ± 0.31,3.61 ± 0.3,,
ILDTAGTEQFTAMRDLYMKNGQGF [RAP1B],3.29 ± 0.36,3.46 ± 0.36,,
MQSLDDATKQLDFTRKTLAEKKQE [SASS6],5.12 ± 0.24,5.19 ± 0.27,,
TAKDFIVGKSLTILGRTFFIYDCD [EFHC1],2.93 ± 0.49,2.28 ± 0.34,,
RFSHMSERDLQELSIQVEEERRAR [ZMAT5],5.51 ± 0.56,4.97 ± 0.87,,
LRMLEYEPAARISPLGALQHGFFR [DYRK1B],2.51 ± 0.2,2.61 ± 0.33,,
QSLYQEVFGRLRDENGRPYSPSQY [NFE2L1],3.59 ± 0.31,3.4 ± 0.18,,
ETSRSHDLEAVVPQNGSETGWARK [ATP23],4.95 ± 0.2,5.21 ± 0.12,,
CICWSPFLVTMANIGINGNHSLET [PTGFR],2.82 ± 0.26,2.84 ± 0.73,,
QPMQNGEEDRPLGGGEGHQPAGNR [BEX3],5.42 ± 0.4,5.36 ± 0.35,,
EPEQTGADAAEDEEVDVTSVDPIA [RBBP5],5.64 ± 0.18,5.55 ± 0.33,,
GPDVLETDGLQEVPLCSCRMETPK [EHMT1],4.16 ± 0.43,4.29 ± 0.29,,
AAWCLHHICTNYNSVCSKFRKEIK [RHOBTB1],2.23 ± 0.037,2.19 ± 0.28,,
SMQYNGSYFDRGAKGGSRLCTPEG [DFFB],2.98 ± 0.14,3.35 ± 0.35,,
AEAQKNMYFKTRLKCPRSLSGGR [ZNF396],,,2.72 ± 0.45,2.99 ± 0.44
PSVKYLSHPRVQSGCDKEALLTGG [RNF180],3.99 ± 0.28,4.04 ± 0.29,,

Sequence,protein stability index [1],protein stability index [2],protein stability index [3],protein stability index [4]
DGIPQVYYFGPCGKYNAMVLELLG [CSNK1G3],2.31 ± 0.58,2.27 ± 0.43,,
NVPLSISRLTPGGKAAQAGVAVGD [PDLIM7],4.05 ± 0.23,4.18 ± 0.13,,
CSIALLRALATSNARAQQRAAAQQ [GNAS],2.23 ± 0.23,2.27 ± 0.12,,
KYQANITETQRLGLAMALEPNTTF [FANCE],3.36 ± 0.17,3.4 ± 0.15,,
STLPRSGSSGGQQPSGMKEGVKRY [CHCHD6],4.49 ± 0.35,4.8 ± 0.29,,
HLNETVKAPDIECVLRCSVLEIEQ [FEM1B],3.07 ± 0.49,3.13 ± 0.44,,
LRLLREEEYVAPPRGPLPTLQVVP [TRAF3IP2],2.96 ± 0.3,3.23 ± 0.14,,
ASTTRLYLRKGRGETRICKIYDSP [RAD51],2.94 ± 0.4,3.19 ± 0.31,,
KTVSLQIFSVLNSDDAAAPALETQ [SMOC2],3.2 ± 0.59,3.56 ± 0.38,,
EEHSLEQVQSMVVGEVLKDIETAC [SPDEF],4.8 ± 0.26,4.85 ± 0.091,,
AAPAAGLCGAGSEPSIAPTSCAGN [RSPH3],4.55 ± 0.25,4.68 ± 0.26,,
LEAEKLVMFQRRYYKPGLLMMCFI [SCD],3.26 ± 0.91,2.8 ± 0.44,,
VAERGTTQGCHPAWEPRSESQASR [ZNF8],4.48 ± 0.22,4.6 ± 0.2,,
QVLKKIAQKALDLPSSGEGLAFFT [HMOX1],2.57 ± 0.7,2.02 ± 0.41,,
TEKSGKREFDVRQTPQVNINPFTP [WEE1],4.42 ± 0.25,4.25 ± 0.094,,
ETIEGAPPLWAASAAGHLDVVRSL [FEM1A],3.78 ± 0.16,3.72 ± 0.13,,
FPGVVARPIGEFRSNADYQYQLLR [CNOT7],3.05 ± 0.3,2.97 ± 0.2,,
GRIACANVLSDLYAMGITECDNML [SEPHS2],2.4 ± 0.41,2.43 ± 0.32,,
TGTSNTTAIKSIEFARKGSCFLIN [RBBP5],2.42 ± 0.26,2.42 ± 0.22,,
YVALFPCNECAKLIIQAGIKEVIF [DCTD],2.73 ± 1.2,2.96 ± 0.54,,
